Experimental data reported in patent US20240132599A1 (GAMMADELTA THERAPEUTICS, published 2024).
Where two headings read alike, the source gives them in different places. One block for each binder: values may come before it.

What was measured:
[1] = target: T1, L1 (DV1-GV4), recombinant soluble human Vδ1/Vγ4 γδ TCR heterodimer (human); assay: SPR
T1 construct: Biotinylated in the DELFIA ranking assay; also called human TRDV1; human Vδ1 antigen

[2] = target: T1, L1 (DV1-GV4), recombinant soluble human …; assay: SPR; remark: listed apart in the source
[3] = target: Vδ1 TCR on cynomolgus γδ T cells (cynomolgus monkey); assay: cell-based or functional assay
EGFR on A431 cells = target: T2, EGFR on A431 cells (human, UniProt P00533 25-1210); assay: flow cytometry on A431 cells, 4 C, anti-human IgG-APC secondary, median fluorescence
T2 construct: whole, on cells; also called EGFR-positive A431; EGFR+A431 target cells
Experimental: (§1) Target cells were stained with varying concentrations of antibody, followed by a fluorescent anti-human IgG detection antibody. All incubation steps were performed at 4° C. and mAb binding was determined using flow cytometry to measure the median level of fluorescence. Logarithmic four parameter dose-response curves were fitted using GraphPad Prism 9.
(§2) Target cells were detached from tissue culture flask, resuspended in PBS and seeded at a final density of 100,000 cells per well in v-bottom 96-well plates. Cells underwent centrifugation and the cell pellets were resuspended in FcR blocking reagent according to the manufacturer's instructions, and incubated for 20 minutes at 4C prior to a further wash. Antibodies were diluted to 500 nM in PBS and serially diluted 1:10 in PBS to 50 μM, and added to the cells, followed by a 20-minute incubation at 4C. To determine the quantity of mAb bound to the cell surface, the cells were then stained with a murine anti-human IgG secondary antibody, conjugated to APC (dilution: 1:100) in addition to a viability dye. Following 20-minute incubation at 4C, the cells were washed twice, and fluorescence measured using the MACSQuant.

[4] = target: T3, human EGFR, recombinant protein (human, UniProt P00533 25-645); assay: SPR (Reichert 4SPR): antibody captured on a Protein A chip, human EGFR flowed at 100 nM
T3 construct: Bought protein; also called human EGFR antigen

[5] = target: T1, L1 (DV1-GV4), recombinant soluble human …; assay: SPR; remark: listed apart in the source
[6] = target: T4, cyno antigen DV1/GV77, recombinant cynomolgus Vδ1 γδ TCR heterodimer (cynomolgus monkey); assay: SPR
T4 construct: also called cyno TRDV1; Cyno DV1-77; not shown: Delta-chain CDR3/J and constant part, the GV77 gamma chain, and any tags

[7] = target: T3, human EGFR, recombinant protein
[8] = target: T3, human EGFR, recombinant protein; assay: SPR
[9] = target: T5, Vδ1 TCR on human Vδ1-positive γδ T cells (human, UniProt A0A1B0GX56 22-115); assay: flow cytometry on primary Vδ1 γδ T cells, 4 C, anti-human IgG-APC secondary, median fluorescence
T5 construct: also called Vδ1 γδ T-cells; cell surface Vδ1 TCR
Experimental: as §1, §2

[10] = target: T3, human EGFR, recombinant protein; assay: method not stated for this control
EGFR on HT-29 cells = target: T6, EGFR on HT-29 cells (human, UniProt P00533); assay: flow cytometry on HT-29 cells, 20 min at 4 C, anti-human IgG secondary
T6 construct: full length, cell surface; also called EGFR+ colon cancer cell line HT-29; HT-29 tumour cell
Experimental: After washing, cells were incubated for a further 20 minutes with anti-human IgG secondary antibodies (Jackson Immunoresearch) and live/dead stain (eFluor 780, Invitrogen) before washing and fixing using CellFix. The amount of antibody bound to each cell type was determined using flow cytometry (MACSQuant Analyser 10, Miltenyi Biotech).

[11] = target: T5, Vδ1 TCR on human Vδ1-positive γδ T cells; assay: flow cytometry on skin-derived Vδ1+ cells, 20 min at 4 C, anti-human Fc secondary
Experimental: Cells were washed and stained with an anti-human Fc secondary antibody (Jackson Immunoresearch) and a viability dye for dead cells (eFlour 780, Invitrogen) for 20 minutes at 4° C. The cells were washed in FACS buffer and resuspended in Cell Fix (BD sciences) before analysis on a MACSQuant Analyser 10 flow cytometer (Miltenyi).

T1 sequence (main, as listed by the source): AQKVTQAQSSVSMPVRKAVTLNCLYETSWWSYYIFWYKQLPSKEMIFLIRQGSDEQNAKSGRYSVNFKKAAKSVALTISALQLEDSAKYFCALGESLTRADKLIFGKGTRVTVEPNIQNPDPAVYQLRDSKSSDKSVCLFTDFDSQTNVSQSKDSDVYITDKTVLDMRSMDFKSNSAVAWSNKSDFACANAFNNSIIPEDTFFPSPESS
T5 sequence (A0A1B0GX56 22-115 limits assumed, stated change not applied): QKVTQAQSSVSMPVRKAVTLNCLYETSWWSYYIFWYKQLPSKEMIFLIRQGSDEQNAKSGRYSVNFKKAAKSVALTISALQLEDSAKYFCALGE
Sequence of Vδ1 TCR on cynomolgus γδ T cells (cynomolgus monkey) (chain, as listed by the source): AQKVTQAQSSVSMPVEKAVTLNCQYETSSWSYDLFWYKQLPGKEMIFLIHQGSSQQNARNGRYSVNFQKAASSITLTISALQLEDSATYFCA
T4 sequence (delta, as listed by the source limits assumed): as the sequence (chain, as listed by the source) above

B3: ADT1-4-8 (antibody, IgG1, V domains shown)
VH: EVQLQQSGPGLVKPSQTLSLTCAISGDSVSSKSAAWNWIRQSPSRGLEWLGRTYYRSKWSTDYAASVKSRITINPDTSKNQLSLQLNSVTPEDTAVYYCARSWVGYVDVWGQGTLVTVSS
VL: DIQMTQSPPALSASVGDRVTITCRASQDINDWLAWYQHKPGKAPKLLIYDASSLESGVPLRFSGSGSGTEFTLTISSLQPDDFATYYCQQKYSAPQVTFGQGTRLEIK
notes: IgG1
Kd [1]: 0.541 nM
Kd [6]: 15.1 nM

B5: D1.3xFS1-67 control (bispecific antibody, V domains shown)
VH: QVQLQESGPGLVRPSQTLSLTCTVSGSTFSGYGVNWVRQPPGRGLEWIGMIWGDGNTDYNSALKSRVTMLVDTSKNQFSLRLSSVTAADTAVYYCARERDYRLDYWGQGSLVTVSS
VL: DIQMTQSPSSLSASVGDRVTITCRASGNIHNYLAWYQQKPGKAPKLLIYYTTTLADGVPSRFSGSGSGTDYTFTISSLQPEDIATYYCQHFWSTPRTFGQGTKVEIKR
notes: Only one entry is named for the whole molecule; it may hold heavy and light chains together; also called D1.3 FS1-67
EC50 (read off the curve) (EGFR on A431 cells): ~8 nM
binding result [9]: no binding (tested: 500 nM)
Kd [10]: 1 nM
EC50 (EGFR on HT-29 cells): 0.281 nM
MFI (at saturation) [11]: ~0.495 MFI

Next, values leading:

Kd [1]: 0.08 nM
Kd [2]: 0.08 nM
B1: ADT1-4-1 (antibody, IgG1, V domains shown)
VH: EVQLQQSGPGLVKPSQTLSLTCAISGDSVSSKSAAWNWIRQSPSRGLEWLGRTYYRSKWSTDYAASVKSRITINPDTSKNQLSLQLNSVTPEDTAVYYCARTWVGYADVWGQGTLVTVSS
VL: DIQMTQSPPALSASVGDRVTITCRASQDINDWLAWYQHKPGKAPKLLIYDASSLESGVPLRFSGSGSGTEFTLTISSLQPDDFATYYCQQRYSTPIVTFGQGTRLEIK
notes: IgG1

EC50 (read off the curve), TCR downregulation, donor AD8170 [3]: 4 to 5 nM
EC50 (read off the curve), TCR downregulation, donor AM945BA [3]: ~2 nM
binding result (EGFR on A431 cells): no binding (tested: 500 nM)
binding result [4]: no binding (tested: 100 nM)
Kd [5]: 0.522 nM
B2: ADT1-4-2 (antibody, IgG1, V domains shown)
VH: EVQLQQSGPGLVKPSQTLSLTCAISGDSVSSKSAAWNWIRQSPSRGLEWLGRTYYRSKWSTDYAASVKSRITINPDTSKNQLSLQLNSVTPEDTAVYYCARTWVGYVDRWGQGTLVTVSS
VL: DIQMTQSPPALSASVGDRVTITCRASQDINDWLAWYQHKPGKAPKLLIYDASSLESGVPLRFSGSGSGTEFTLTISSLQPDDFATYYCQQKYSAPQVTFGQGTRLEIK
notes: IgG1

Kd [7]: 140 nM
Kd [5]: 0.883 nM
Kd [8]: 142 nM
B4: ADT1-4-2/ADT3-5 (bispecific antibody)
heavy: EVQLQQSGPGLVKPSQTLSLTCAISGDSVSSKSAAWNWIRQSPSRGLEWLGRTYYRSKWSTDYAASVKSRITINPDTSKNQLSLQLNSVTPEDTAVYYCARTWVGYVDRWGQGTLVTVSSASTKGPSVFPLAPSSKSTSGGTAALGCLVKDYFPEPVTVSWNSGALTSGVHTFPAVLQSSGLYSLSSVVTVPSSSLGTQTYICNVNHKPSNTKVDKKVEPKSCDKTHTCPPCPAPELAGAPSVFLFPPKPKDTLMISRTPEVTCVVVDVSHEDPEVKFNWYVDGVEVHNAKTKPREEQYNSTYRVVSVLTVLHQDWLNGKEYKCKVSNKALPAPIEKTISKAKGQPREPQVYTLPPSRDELTKNQVSLTCLVKGFYPSDIAVEWESTYGPENNYKTTPPVLDSDGSFFLYSKLTVSYWRWYKGNVFSCSVMHEALHNHYTQKSLSLSPG
light: DIQMTQSPPALSASVGDRVTITCRASQDINDWLAWYQHKPGKAPKLLIYDASSLESGVPLRFSGSGSGTEFTLTISSLQPDDFATYYCQQKYSAPQVTFGQGTRLEIKRTVAAPSVFIFPPSDEQLKSGTASVVCLLNNFYPREAKVQWKVDNALQSGNSQESVTEQDSKDSTYSLSSTLTLSKADYEKHKVYACEVTHQGLSSPVTKSFNRGEC
notes: mAb2; also called ADT1-4-2xLEE1
